According to article PMC2745997 (Nature neuroscience, 2009):

What was measured:
UNC-5/HA (C. elegans) = assay: LUMIER
RCM-HA (in Cos-7 cells) = RCM-HA (in Cos-7 cells) ( (mammalian), UniProt O08747 41-931); assay: radioligand binding
Sequence of RCM-HA (in Cos-7 cells) (O08747 41-931): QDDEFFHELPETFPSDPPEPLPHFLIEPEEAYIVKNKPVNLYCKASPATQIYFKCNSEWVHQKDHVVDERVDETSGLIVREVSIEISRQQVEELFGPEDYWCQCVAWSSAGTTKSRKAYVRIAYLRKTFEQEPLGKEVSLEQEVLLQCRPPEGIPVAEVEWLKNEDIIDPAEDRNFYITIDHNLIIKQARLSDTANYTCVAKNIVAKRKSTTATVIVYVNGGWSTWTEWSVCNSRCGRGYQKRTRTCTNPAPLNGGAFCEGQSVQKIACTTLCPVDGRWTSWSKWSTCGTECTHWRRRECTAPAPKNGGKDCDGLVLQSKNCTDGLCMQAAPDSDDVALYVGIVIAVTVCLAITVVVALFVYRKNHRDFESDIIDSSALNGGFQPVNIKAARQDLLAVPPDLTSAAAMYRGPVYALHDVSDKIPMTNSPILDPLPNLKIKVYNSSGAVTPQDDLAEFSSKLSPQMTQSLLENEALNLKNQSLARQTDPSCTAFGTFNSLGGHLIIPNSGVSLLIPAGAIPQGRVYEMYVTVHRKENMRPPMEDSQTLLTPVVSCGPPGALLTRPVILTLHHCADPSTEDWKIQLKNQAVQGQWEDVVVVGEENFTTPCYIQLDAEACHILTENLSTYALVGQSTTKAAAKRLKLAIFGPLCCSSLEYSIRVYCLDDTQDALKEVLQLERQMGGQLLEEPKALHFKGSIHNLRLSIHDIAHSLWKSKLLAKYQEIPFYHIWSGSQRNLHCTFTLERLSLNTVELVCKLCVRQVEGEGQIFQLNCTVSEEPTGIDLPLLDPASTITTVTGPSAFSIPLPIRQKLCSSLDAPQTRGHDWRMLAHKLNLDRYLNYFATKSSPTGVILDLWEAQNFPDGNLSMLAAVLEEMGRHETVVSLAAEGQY

Sequence of UNC-5/HA (C. elegans) (Q26261 whole entry): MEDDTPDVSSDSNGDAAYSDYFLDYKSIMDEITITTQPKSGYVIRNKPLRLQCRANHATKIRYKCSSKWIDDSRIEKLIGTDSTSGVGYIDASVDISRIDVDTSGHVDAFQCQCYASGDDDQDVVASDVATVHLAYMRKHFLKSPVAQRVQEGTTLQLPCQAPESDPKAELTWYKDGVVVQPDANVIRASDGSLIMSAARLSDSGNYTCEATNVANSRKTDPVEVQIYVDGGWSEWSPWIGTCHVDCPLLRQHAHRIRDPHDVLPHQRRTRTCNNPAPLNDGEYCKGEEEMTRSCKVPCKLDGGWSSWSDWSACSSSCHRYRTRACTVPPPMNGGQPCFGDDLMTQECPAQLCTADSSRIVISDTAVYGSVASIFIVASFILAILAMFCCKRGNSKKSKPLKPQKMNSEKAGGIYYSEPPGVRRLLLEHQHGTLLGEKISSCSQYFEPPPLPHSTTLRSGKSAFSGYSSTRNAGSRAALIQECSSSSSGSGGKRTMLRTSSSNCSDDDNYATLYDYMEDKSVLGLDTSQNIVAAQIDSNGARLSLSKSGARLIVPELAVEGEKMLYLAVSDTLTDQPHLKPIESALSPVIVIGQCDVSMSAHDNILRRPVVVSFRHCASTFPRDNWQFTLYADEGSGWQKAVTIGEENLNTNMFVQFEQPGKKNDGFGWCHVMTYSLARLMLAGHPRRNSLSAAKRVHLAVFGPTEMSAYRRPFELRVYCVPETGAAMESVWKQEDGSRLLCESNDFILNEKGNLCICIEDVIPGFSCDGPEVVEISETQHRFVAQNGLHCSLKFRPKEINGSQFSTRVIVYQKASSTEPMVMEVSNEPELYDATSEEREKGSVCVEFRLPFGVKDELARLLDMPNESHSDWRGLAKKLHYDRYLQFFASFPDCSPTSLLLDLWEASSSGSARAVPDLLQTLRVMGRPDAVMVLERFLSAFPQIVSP

Molecule	fold increase in luciferase activity over mock transfected cells (UNC-5/HA (C. elegans)) [fold]	Kd (RCM-HA (in Cos-7 cells)) [nM]
Gluc-UNC-129 (from UniProt G5EBY8 19-407) (ligand)	7	–
125I-BMP7 (ligand, UniProt P18075 293-431, looked up, 125I label (iodinated)) STGSKQRSQNRSKTPKNQEALRMANVAENSSSDQRQACKKHELYVSFRDLGWQDWIIAPEGYAAYYCEGECAFPLNSYMNATNHAIVQTLVHFINPETVPKPCCAPTQLNAISVLYFDDSSNVILKKYRNMVVRACGCH	–	4
